Data set [1] addresses T1, Lck phosphopeptide (ARLIEDNEpYTAAREG).
T1 chain: ARLIEDNEYTAAREG

Another data set has as its target T2, GST tag alone (UniProt P08515 1-218 = GST).
T2 construct: Negative control of the pull-down; also called GST alone
Description: GST pull-down with glutathione-agarose from E. coli BL21 lysates, S-protein-HRP blot. The protocol:
The s-tagged constructs were prepared using pET-30, (Novagen, San Diego, Calif. 92121), however, other vector systems can be used. […] The constructs were equally expressed using E. coli BL21. Either a GST-Tagged SH3 domain of Csk or a GST tag alone was co-expressed with the LYP fragment constructs. A glutathione-agarose bead was added to each of the BL21 lysates. Precipitated proteins were separated by gel-electrophoresis and transferred to a nitrocellulose filter. The filters were incubated with S-protein HRP and ECL reagent to allow for chemiluminescent detection of Csk bound LYP. […] None of the constructs precipitated when co-expressed with GST alone. In this example, bound material was detected using S-protein-horseradish peroxidase.

Data set [2] addresses T3, endogenous Csk from Jurkat T cells (UniProt P41240 2-450, limits assumed).
T3 construct: mature; Native protein in the cell lysate
Description: S-tag pull-down from Jurkat T cell lysate, anti-Csk blot. The protocol: Jurkat T cells, which endogenously express Csk, were lysed and the protein lysate was subjected to a pull down assay using S-tagged LYP either having R620 or having W620. A blot was performed and detection was carried out using an anti-Csk primary antibody in a two-stage detection system.

Numbering of substitutions follows the chain as printed.

T2 sequence (P08515 whole entry): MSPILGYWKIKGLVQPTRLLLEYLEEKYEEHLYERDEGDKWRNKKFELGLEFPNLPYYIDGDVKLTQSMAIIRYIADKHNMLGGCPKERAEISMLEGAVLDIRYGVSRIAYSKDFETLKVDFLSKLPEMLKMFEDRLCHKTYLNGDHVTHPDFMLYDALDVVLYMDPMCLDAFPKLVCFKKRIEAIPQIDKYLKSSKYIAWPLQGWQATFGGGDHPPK
T3 sequence (P41240 2-450 limits assumed): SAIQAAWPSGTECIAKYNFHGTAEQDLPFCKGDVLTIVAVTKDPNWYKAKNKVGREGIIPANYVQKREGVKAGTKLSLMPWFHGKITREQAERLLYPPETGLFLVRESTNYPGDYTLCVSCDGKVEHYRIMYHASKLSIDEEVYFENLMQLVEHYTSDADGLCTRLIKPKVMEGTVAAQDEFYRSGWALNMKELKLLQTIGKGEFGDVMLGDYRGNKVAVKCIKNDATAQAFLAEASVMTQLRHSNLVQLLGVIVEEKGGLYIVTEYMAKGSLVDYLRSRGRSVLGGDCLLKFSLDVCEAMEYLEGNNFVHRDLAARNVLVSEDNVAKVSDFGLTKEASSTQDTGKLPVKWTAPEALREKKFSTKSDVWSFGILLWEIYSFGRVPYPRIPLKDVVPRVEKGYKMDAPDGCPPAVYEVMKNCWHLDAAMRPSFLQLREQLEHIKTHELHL

B1: full length Hemagglutinin (HA) tagged LYP having R620 (protein)
chain: MDQREILQKFLDEAQSKKITKEEFANEFLKLKRQSTKYKADKTYPTTVAEKPKNIKKNRYKDILPYDYSRVELSLITSDEDSSYINANFIKGVYGPKAYIATQGPLSTTLLDFWRMIWEYSVLIIVMACMEYEMGKKKCERYWAEPGEMQLEFGPFSVSCEAEKRKSDYIIRTLKVKFNSETRTIYQFHYKNWPDHDVPSSIDPILELIWDVRCYQEDDSVPICIHCSAGCGRTGVICAIDYTWMLLKDGIIPENFSVFSLIREMRTQRPSLVQTQEQYELVYNAVLELFKRQMDVIRDKHSGTESQAKHCIPEKNHTLQADSYSPNLPKSTTKAAKMMNQQRTKMEIKESSSFDFRTSEISAKEELVLHPAKSSTSFDFLELNYSFDKNADTTMKWQTKAFPIVGEPLQKHQSLDLGSLLFEGCSNSKPVNAAGRYFNSKVPITRTKSTPFELIQQRETKEVDSKENFSYLESQPHDSCFVEMQAQKVMHVSSAELNYSLPYDSKHQIRNASNVKHHDSSALGVYSYIPLVENPYFSSWPPSGTSSKMSLDLPEKQDGTVFPSSLLPTSSTSLFSYYNSHDSLSLNSPTNISSLLNQESAVLATAPRIDDEIPPPLPVRTPESFIVVEEAGEFSPNVPKSLSSAVKVKIGTSLEWGGTSEPKKFDDSVILRPSKSVKLRSPKSELHQDRSSPPPPLPERTLESFFLADEDCMQAQSIETYSTSYPDTMENSTSSKQTLKTPGKSFTRSKSLKILRNMKKSICNSCPPNKPAESVQSNNSSSFLNFGFANRFSKPKGPRNPPPTWNI
On to B1, for which, in data set [1], the “Dephosphorylation of an Lck phosphopeptide by immunoprecipitated HA-tagged LYP” value was “Immunoprecipitated LYP*R620 dephosphorylated 6.312±1.596 pmoles of substrate/min/106 transfected cells (n=5)”.

B2: S-tagged LYP polypeptide corresponding to amino acid residues 603-710 with arginine at position 620 (other, human, UniProt Q9Y2R2 603-710, looked up)
chain: LATAPRIDDEIPPPLPVRTPESFIVVEEAGEFSPNVPKSLSSAVKVKIGTSLEWGGTSEPKKFDDSVILRPSKSVKLRSPKSELHQDRSSPPPPLPERTLESFFLADE
notes: Expressed in E. coli BL21; also called Construct 1; not shown: S-tag and other vector-derived residues from pET-30 (Novagen)
On to B2, for which the binding result with GST tag alone is on record as “no binding”.

B3: S-tagged LYP polypeptide corresponding to amino acid residues 603-710 with tryptophan at position 620 (other, human, UniProt Q9Y2R2 603-710, looked up)
chain: B2 chain with R18W
notes: Expressed in E. coli BL21; also called Construct 2; not shown: S-tag and other vector-derived residues from pET-30 (Novagen)
Take B3: the binding result (in the data set with GST tag alone; in data set [2]) was “no binding” throughout.

The values are drawn from US20080199514A1 (BURNHAM INSTITUTE, published 2008).
